Target: αv integrins on NIH3T3 cells (αvβ3 and αvβ5) (mouse) (UniProt P43406)
Test: cell-based or functional assay

UniProt P43406, sequence (P43406 whole entry): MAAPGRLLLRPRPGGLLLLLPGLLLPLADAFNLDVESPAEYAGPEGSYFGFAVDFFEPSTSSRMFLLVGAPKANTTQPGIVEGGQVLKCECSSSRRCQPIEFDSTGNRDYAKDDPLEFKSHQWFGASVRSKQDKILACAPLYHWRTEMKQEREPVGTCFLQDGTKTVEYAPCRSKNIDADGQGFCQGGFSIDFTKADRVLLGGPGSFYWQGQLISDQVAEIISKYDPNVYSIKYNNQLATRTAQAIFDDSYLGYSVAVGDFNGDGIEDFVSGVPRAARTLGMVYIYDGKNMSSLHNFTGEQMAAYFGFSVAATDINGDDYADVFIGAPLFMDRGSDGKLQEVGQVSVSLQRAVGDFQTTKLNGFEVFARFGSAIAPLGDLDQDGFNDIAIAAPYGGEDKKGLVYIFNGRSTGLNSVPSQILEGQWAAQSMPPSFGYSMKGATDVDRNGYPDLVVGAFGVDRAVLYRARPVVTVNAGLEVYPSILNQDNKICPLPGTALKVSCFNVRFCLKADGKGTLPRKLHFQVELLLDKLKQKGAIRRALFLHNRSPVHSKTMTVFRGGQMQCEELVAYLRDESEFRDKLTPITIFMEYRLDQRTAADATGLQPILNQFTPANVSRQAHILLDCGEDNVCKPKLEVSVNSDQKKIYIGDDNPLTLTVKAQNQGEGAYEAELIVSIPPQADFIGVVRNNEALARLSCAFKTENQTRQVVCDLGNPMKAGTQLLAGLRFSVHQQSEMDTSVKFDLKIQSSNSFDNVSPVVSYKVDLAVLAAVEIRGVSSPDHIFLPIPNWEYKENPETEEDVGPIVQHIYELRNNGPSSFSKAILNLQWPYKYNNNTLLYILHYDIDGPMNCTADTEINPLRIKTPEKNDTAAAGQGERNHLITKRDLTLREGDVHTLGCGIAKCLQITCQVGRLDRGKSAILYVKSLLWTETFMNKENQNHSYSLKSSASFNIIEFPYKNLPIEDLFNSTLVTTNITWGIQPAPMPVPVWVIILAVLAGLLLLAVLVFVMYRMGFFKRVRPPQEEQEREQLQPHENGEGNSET

GRGDSP [RGD peptide (GRGDSP)]
reduction of transduction of Ad5luc-L1 in NIH3T3 cells compared to control RGE peptide: 40 % reduction | reduction of transduction of Ad5luc-L16 in NIH3T3 cells compared to control RGE peptide: 60 % reduction | reduction of transduction of Ad5luc-L33 in NIH3T3 cells compared to control RGE peptide: 61 % reduction

Reference: patent publication US20060281073A1
